Measurements published in patent US9751918B2, “Transgenic plants expressing cobalamin binding proteins” (XERAGENX LLC, priority 2001, dated 2017).

Key:
[1] = Competitive binding of 57Co-labelled cobalamin versus unlabelled cobalamin; conditions: 57Co-cobalamin mixed with increasing non-radioactive cobalamin, bound fraction by gamma counter
Method: (§1) Equal amounts of the respective proteins were added to a mixture containing a fixed amount of cobalt (57Co) labelled cobalamin mixed with increasing amounts of non-radioactive cobalamin or cobinamide (X axis). Free and bound ligand were separated and the amount of 57Co attached to the protein was measured in a gamma counter. The 57Co fraction bound relative to the amount of 57Co bound in the absence of unlabeled cobalamin or cobinamide was calculated (Y axis).
as §1, with “Both recombinant proteins were extracted form transgenic Arabidopsis thaliana plants. Equal” for “Equal”, “(57Co) labeled” for “(57Co) labelled”, “of nonradioactive” for “of non-radioactive”, “ligand was” for “ligand were”, “of unlabelled” for “of unlabeled”
(§2) One kilogram of three week old IF-plants was homogenization with 2 liters of phosphate buffer and clarified by centrifugation. This extract contained 100 mg recombinant human IF with CBC. This IF had specificity for cobalamin binding whereas the analog cobinamid was not bound by the IF as tested by the method described by (15).

[2] = Competitive binding of 57Co-labelled cobalamin versus unlabelled cobinamide; conditions: 57Co-cobalamin mixed with increasing non-radioactive cobinamide; bound fraction by gamma counter
Method: as §1
as §1, with “Both recombinant proteins were extracted form transgenic Arabidopsis thaliana plants. Equal” for “Equal”, “(57Co) labeled” for “(57Co) labelled”, “of nonradioactive” for “of non-radioactive”, “ligand was” for “ligand were”, “of unlabelled” for “of unlabeled”
as §2

[3] = target: human intestinal receptor protein cubilin (Homo sapiens, UniProt O60494); assay: BIAcore 2000 binding of intrinsic factor to immobilized cubilin; conditions: for binding to cubilin, holo-form: intrinsic factor saturated with vitamin B12 (holo-form); for binding to cubilin, apo-form: intrinsic factor unsaturated with vitamin B12 (apo-form)
Chain of human intestinal receptor protein cubilin (O60494 36-3623): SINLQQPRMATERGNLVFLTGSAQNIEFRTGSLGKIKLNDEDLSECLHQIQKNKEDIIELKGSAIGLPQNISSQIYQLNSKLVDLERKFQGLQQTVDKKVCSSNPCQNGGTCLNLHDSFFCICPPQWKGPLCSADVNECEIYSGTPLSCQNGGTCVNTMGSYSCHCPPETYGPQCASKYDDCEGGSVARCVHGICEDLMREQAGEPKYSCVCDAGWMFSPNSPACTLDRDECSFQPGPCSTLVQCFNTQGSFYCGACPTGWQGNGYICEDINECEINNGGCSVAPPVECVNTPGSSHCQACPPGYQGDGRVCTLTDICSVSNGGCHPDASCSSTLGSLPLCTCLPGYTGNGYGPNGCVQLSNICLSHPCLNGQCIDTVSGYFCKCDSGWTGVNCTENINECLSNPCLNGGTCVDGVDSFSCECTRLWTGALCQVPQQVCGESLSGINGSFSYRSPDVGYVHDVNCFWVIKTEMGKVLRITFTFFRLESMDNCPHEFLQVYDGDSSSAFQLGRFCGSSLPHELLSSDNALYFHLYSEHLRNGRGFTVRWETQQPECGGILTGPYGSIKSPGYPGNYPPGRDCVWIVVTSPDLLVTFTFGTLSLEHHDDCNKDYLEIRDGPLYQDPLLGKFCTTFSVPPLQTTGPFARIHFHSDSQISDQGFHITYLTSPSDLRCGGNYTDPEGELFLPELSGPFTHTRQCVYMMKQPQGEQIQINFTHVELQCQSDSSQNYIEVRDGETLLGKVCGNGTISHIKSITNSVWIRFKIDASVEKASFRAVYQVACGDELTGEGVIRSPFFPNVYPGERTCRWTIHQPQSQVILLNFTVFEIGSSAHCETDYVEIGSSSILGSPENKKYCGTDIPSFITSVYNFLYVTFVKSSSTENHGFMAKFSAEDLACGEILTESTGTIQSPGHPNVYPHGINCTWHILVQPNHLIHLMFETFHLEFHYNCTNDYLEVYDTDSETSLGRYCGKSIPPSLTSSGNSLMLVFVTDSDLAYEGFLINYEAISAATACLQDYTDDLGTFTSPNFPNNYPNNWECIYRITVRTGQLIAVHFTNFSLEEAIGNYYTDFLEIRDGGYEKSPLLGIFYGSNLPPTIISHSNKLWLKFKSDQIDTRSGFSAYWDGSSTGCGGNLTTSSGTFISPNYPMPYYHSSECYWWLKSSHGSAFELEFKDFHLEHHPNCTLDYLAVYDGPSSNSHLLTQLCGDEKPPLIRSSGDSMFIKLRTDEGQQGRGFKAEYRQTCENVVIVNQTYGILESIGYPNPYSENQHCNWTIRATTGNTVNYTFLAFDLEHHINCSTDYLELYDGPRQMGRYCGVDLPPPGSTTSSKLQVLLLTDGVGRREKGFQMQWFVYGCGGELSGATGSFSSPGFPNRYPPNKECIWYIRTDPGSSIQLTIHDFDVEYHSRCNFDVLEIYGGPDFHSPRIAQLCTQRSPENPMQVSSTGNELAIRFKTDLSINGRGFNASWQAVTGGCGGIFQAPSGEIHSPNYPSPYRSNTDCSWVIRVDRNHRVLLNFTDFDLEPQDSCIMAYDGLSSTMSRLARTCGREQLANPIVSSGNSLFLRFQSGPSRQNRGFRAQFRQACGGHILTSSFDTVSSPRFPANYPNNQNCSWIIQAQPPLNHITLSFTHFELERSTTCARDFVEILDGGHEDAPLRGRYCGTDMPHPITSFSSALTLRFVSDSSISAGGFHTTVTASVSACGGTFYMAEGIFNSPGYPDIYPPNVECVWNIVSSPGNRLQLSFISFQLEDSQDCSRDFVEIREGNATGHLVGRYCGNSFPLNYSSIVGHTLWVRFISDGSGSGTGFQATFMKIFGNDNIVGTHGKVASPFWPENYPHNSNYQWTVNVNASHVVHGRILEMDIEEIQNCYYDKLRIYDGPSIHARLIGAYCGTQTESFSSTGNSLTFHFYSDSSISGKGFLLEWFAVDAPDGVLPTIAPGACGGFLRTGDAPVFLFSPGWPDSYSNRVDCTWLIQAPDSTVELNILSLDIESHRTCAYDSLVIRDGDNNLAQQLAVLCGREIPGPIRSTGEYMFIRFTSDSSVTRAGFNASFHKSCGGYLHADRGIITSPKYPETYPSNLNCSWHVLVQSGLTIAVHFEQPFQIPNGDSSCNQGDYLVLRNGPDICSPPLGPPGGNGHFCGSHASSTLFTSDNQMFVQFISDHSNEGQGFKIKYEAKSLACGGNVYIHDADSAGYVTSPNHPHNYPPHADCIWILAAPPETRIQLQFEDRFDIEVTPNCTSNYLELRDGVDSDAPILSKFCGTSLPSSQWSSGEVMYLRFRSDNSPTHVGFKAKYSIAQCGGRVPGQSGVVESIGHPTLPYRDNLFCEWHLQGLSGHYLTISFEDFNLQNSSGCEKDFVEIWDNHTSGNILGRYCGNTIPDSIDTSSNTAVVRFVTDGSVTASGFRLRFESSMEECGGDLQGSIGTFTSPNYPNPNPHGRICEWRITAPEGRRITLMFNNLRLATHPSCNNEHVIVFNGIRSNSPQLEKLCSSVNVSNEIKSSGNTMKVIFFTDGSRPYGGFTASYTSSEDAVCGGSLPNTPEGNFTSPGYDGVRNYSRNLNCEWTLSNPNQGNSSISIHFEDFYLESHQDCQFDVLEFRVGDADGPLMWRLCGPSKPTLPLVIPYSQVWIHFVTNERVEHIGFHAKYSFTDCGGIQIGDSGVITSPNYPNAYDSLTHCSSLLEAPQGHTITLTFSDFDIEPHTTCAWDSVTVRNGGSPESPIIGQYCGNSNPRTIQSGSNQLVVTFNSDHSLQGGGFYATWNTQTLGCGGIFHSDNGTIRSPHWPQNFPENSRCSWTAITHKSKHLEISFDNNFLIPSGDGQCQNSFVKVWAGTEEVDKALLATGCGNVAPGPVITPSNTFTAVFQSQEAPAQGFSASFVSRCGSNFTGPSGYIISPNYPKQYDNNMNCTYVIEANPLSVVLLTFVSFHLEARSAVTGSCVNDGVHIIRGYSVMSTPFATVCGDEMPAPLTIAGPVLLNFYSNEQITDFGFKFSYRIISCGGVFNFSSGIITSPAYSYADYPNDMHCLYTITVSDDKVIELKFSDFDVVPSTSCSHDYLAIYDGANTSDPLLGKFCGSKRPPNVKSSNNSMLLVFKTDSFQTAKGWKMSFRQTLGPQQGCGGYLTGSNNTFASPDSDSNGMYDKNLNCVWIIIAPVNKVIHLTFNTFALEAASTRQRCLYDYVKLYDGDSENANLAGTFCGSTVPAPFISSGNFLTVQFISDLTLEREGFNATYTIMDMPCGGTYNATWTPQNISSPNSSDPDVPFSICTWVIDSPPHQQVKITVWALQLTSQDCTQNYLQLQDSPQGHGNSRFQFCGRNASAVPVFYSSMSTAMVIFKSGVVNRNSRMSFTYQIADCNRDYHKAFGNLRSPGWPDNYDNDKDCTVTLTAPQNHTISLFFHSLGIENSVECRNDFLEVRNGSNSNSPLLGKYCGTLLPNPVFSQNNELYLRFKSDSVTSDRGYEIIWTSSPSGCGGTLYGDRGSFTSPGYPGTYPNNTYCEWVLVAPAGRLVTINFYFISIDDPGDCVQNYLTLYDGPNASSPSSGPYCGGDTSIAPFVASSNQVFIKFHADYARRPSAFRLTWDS
Chain of human intestinal receptor protein cubilin (P27352 19-417 partner): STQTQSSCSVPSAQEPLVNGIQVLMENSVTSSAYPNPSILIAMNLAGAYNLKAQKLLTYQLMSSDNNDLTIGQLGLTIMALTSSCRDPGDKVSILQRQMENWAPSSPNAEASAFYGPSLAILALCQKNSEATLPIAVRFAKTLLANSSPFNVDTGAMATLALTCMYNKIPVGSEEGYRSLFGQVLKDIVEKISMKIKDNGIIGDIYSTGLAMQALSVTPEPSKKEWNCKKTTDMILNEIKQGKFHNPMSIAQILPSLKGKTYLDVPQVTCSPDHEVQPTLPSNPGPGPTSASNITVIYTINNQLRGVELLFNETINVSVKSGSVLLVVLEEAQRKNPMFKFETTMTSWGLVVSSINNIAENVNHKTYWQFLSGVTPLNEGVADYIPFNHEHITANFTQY
Method: The binding between intrinsic factor and its receptor cubilin was analysed employing a BIAcore 2000 instrument (Biacore AB, Uppsala, Sweden). An increase in Resp. Diff. (Y axis) indicates binding between intrinsic factor and cubilin. At time approximately 100 a solution with intrinsic factor is added to the immobilized cubilin. Intrinsic factor was isolated from transgenic plants, human gastric juice and hog stomach. Preparations of vitamin B 12 saturated and vitamin B12 unsaturated intrinsic factor were used. At time approximately 600 intrinsic factor is removed from the solution and the dissociation between cubilin and intrinsic factor is followed.

[4] = listed as native intrinsic factor
[5] = listed as recombinant intrinsic factor

Molecule: native human gastric IF: Native intrinsic factor present in / isolated from human gastric juice, used for comparison [reference compound]
- ability to bind cobalamin [1]: specificity for binding Cbl
- ability to bind cobalamin ([1]; listed as native IF): specificity for binding cobalamin
- ability to bind cobinamid [2]: not cobinamid
- binding to cubilin, holo-form ([3]; listed as human gastric IF): bind to the cubulin receptor
- binding to cubilin, holo-form [3, 4]: binds to cubilin
- binding to cubilin, apo-form ([3]; listed as human gastric IF): only when in holo-form
- binding to cubilin, apo-form [3, 4]: only when saturated with vitamin B12

Molecule: rhIF from plants: Recombinant human intrinsic factor extracted from transgenic Arabidopsis thaliana plants (mature sequence SEQ ID NO:4)
- ability to bind cobalamin [1]: specificity for binding Cbl
- ability to bind cobalamin ([1]; listed as recombinant IF): specificity for binding cobalamin
- ability to bind cobalamin ([1]; listed as recombinant human intrinsic factor): bind cobalamin
- ability to bind cobinamid [2]: not cobinamid
- binding to cubilin, holo-form [3]: binds
- binding to cubilin, holo-form [3, 5]: binds to cubilin
- binding to cubilin, apo-form [3]: does not bind
- binding to cubilin, apo-form [3, 5]: only when saturated with vitamin B12

B1: rhTC: Recombinant human transcobalamin extracted from transgenic Arabidopsis thaliana plants (mature sequence SEQ ID NO:11) (protein)
chain: EMCEIPEMDSHLVEKLGQHLLPWMDRLSLEHLNPSIYVGLRLSSLQAGTKEDLYLHSLKLGYQQCLLGSAFSEDDGDCQGKPSMGQLALYLLALRANCEFVRGHKGDRLVSQLKWFLEDEKRAIGHDHKGHPHTSYYQYGLGILALCLHQKRVHDSVVDKLLYAVEPFHQGHHSVDTAAMAGLAFTCLKRSNFNPGRRQRITMAIRTVREEILKAQTPEGHFGNVYSTPLALQFLMTSPMPGAELGTACLKARVALLASLQDGAFQNALMISQLLPVLNHKTYIDLIFPDCLAPRVMLEPAAETIPQTQEIISVTLQVLSLLPPYRQSISVLAGSTVEDVLKKAHELGGFTYETQASLSGPYLTSVMGKAAGEREFWQLLRDPNTPLLQGIADYRPKDGETIELRLVSW
modifications: plant-expressed; homo sapiens
- ability to bind cobalamin [1]: binds to Cbl
- ability to bind cobalamin ([1]; listed as recombinant human transcobalamin): bind cobalamin
- ability to bind cobinamid [2]: not cobinamid
